From the nanobody polyreactivity screen of Harvey et al. (2022)

Test: yeast display, Sf9 membrane polyspecificity reagent, FACS + sequencing; frameworks hold sequencing errors
Procedure, shortened: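 Sorting gates, low and high (top ~1%), were placed on anti-HA fluorescence to track expression and on streptavidin fluorescence to track reagent binding. A clone's polyreactivity label is taken from the gate it came out of. The reagent was 10% biotinylated, detergent-solubilized Sf9 membrane, applied for 1 hour at 4 °C to galactose-induced yeast display cells.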

| Sequence | polyreactivity (PSR sort gate) |
| --- | --- |
| QVQLVESGGGLVQAGGSLRLSCAASGSTFSFYAMGWYRQAPGKERELVADITSGGSTYYADSVKGRFTISRDNAKNTVYLQMNSLKPEDTAVYYCAKADYGGDYYYQSGGLYYYWGQGTQVTVSS | low polyreactivity |
| QVQLVESGGGLVQAGGSLRLSCASSGRIFRVNGMGWYRQAPGKESELVATITGSGGSTYYADSVKGRFTISRDNAKNTVYLQMNSLKPEDTAVYYCAAVSYWPTDRYYSWGQGTQVTVSS | low polyreactivity |
| QVQLVESGGALLQAGGSLRLSCAASGRTFPGYGMGWYRQAPGKERELVAVITSNGGITYYADSVKGRFTISRDNAKNTVYLQMNSLKPEDTAVYYCAAYEIYYEFDSWGQGTQVTVSS | low polyreactivity |
| QVQLVESGGGLVQAGGSLRLSCAASGFTFDYYAMGWYRQAPGKERELVAAINWSGAITYYADSVKGRFTISRDNAKNTVYLQMNSLKPEDTAVYYCAARWGKFYGRFYWGMDYWGQGTQVTVSS | high polyreactivity |
| PVQHVESGGGLVQAGGSLRLSCAASGSIFVWYAMGWYRQAPGKERELVAAITINCGSTYYADSVKGRFTISRDTAKNIVYLQMNSLKPEAKAVYYCAADYYTRDRYEFDSWGQGTQVTVSS | low polyreactivity |
| QVQLVESGGGLVQAGRSLRLSCAASGRSFKYYPMGWYRQAPGKERELVARISRSSGNTYYADSVKGRFTISRDTAKNTVYLQMNSLKAEDTAVYFCATVPHYNGFNYWGQGTQVTVSS | high polyreactivity |
| QVQLVESGGGLVQAGGSLRLSCAASGSTFRIYAMGWYRQAPGKERELVASISSGGRTYYADSVKGRFTISRDNAKNTVYLQMNSLKPEDTAVYYCNARHYYIWWRSPTRTAMNYWGQGTQVTVSS | high polyreactivity |
| QVQLVESGGGLVQAGGSLRLSCAASGLTFQYYAMGWYRQAPGKDRELVAAISTSGGSTYYADSVKGRFTISRDYAKNTVYLQMNSLKPEDTAVYYCAARRGSQYWGQGTQVTVSS | high polyreactivity |
| QVQLEESAGGLVQAGGSLRLSCAASGRIFKAYAMGWYRQAPGKERELVASISRDGSTSYADSVKGRFTISRDNEKNTVYLQMNSLKPEDTAVFYCAGPSYRTRYYFWGQGTQVNVSS | high polyreactivity |
| QVQLVESGGGLVQAGGSLRLSSSASGSTFWYYVRGRYRQAPGKERELVAAISTRGDSTYYADSVKGRFTISRDNAKNSVYLQINSLKPEDTAVYYCAKSRQSSGRVRFDYWGQGTEVTVSS | low polyreactivity |
| QVQLVESGVGLVQAGGSLRLSCAASGTTFSQYAMGGYRQAPGKERELVAAIDWSGGSTYYADSVKGRFTISRDNAKNTVYLQMNSLKPVDTAVYYCNTLRFRSFYLYGYWGQGTQVTVSS | high polyreactivity |
| QVQLEESGGGLVQAGGSLRLSCAASGSTFAVYAMGWYRQAPGKERELVAAINRSGDSTYYADSVKGRFTISRDNAKNTVYLQMNSLKPEDTAVYYCAAYQRVRSGVDMYSWGQGTQVTVSS | high polyreactivity |
| QVQLVESGGGLVQAGGSLRLSCAASGSIFTRYAMAGYRQAPGKERELVAAISWIGTRTYYADSVKGRFTISRDNAKNTVYLPMNSLKPEETAVYYCNAVSKVERYSYPHGRPFEYWGQGTQVTVSS | high polyreactivity |
| QVQLVESGRGLDQAGGSLRLSCAASGSTFESYVMGWYRQAPGKERELVADITKSGGNTYYADSVKGRFTISRDNWMITVYLLMNSLKPEDTAVYYCAVERGRRGMDYWGQGTQVTVSS | low polyreactivity |
| QVKLVESGGVLVQAGGSLRLSCAASGSIFVYNAMGWYRQAPGKERELVAAISQRGGSTYYADSVKGRFTISRDNAKNSVYLQMNSLKPEDTAVYYCAAGPGDSGDDYWGQGSQVTVSS | low polyreactivity |
| QVQHVESGGGLVQAGGSLRLSCAASGLIFSWYAKGWYRQAPGKERELDASITIGGNTNYAYSVKGRFTISRDNAKNTVYLQMNSLKPEDTAVYYCDAQTFWYGYGGGDYWGQGTQVTVSS | low polyreactivity |
| QVPLVESGGGLVHAVGSLRLSCAASGSIFYPYAMGWNRKAPWKERELVARITSGGSTHYADSVKGRFTISRDNDNHNVYLHMNSLKPEDTAVYYFNADYWFVEYDYWGQGTQVTVSS | low polyreactivity |
| QVQLVESGGGLVQAGGSLRLSCAASGSISGYNAMGWYRQAPGKERELVAVITTDGSTNYADSVKGRFTISRDNAKNTVYLQMNSLKPEDTAVYYCNTDDGWRLLWEYDYWGQGTQVTVSS | low polyreactivity |
| QVQLVETGGGLVQAGGRLRLSCAASGSTFKNNAMGWSRQAPGKEREFVAGITRRGTSTYYADSVKGRFTISRDNAKNTVYLQMNSLKPEDTAVYYCNARLRARSTIKLDYWGQGTQVTVSS | high polyreactivity |
| QGQLVESGGGLVQAGGSLRLSCAASGFIFRNYAMGWYRQAPGKERELVAAISRGGSTYYADSVKGRFTISRDNAKNTVYLQMNSLKPEDTAVYYCAADASTYYGTQWASYYYWGQGTQVTVSS | high polyreactivity |
| QVQLVESCGGLVQAGGSLRLRCAASGRIIRKYVMAWYRQAPGKERELVAAITGGGSTYYADSVKGRFTISRDNAKNTVYFQKNSLKPEDTAVYYCAADRQSAAHRLWGSEYGYWGQGTQVTVSS | high polyreactivity |
| HVQLVESGGGLVQAGGSLRLSCAASGGIFYGNVMGWYRQAPGKERELVADITSVGSTYYADSVKGRFTISRDNAKNTVYLQMNSLKPEDTAVYYCAAEPDHVADSHSGYDYWGQGTQVTVSS | low polyreactivity |

| Sequence | polyreactivity (PSR sort gate) |
| --- | --- |
| QVQLVESGGGLVQAGGSLRLSCAASGRTFHAYAMGGYRQARGKARELVATISTSGTSTYYADSVKGRFTISRDNAKNTVYLQMNSLKAEDTAVYYCGKGPRQDFYFSFEYWGQGTQVTVSS | high polyreactivity |
| QLQLVESGGGLVQAGGSLRLSCAASGSTFWSNTMGWYRQAPGKERELVATITDSGGITYYADSVKGRFTISRDNAKNTVYLQMNSLKPEDTAVYYCNVRKTWYGYSVTGRYDYWGQGTQVTVSS | low polyreactivity |
| QVQHVESGGGLVQAGGSLRLSCAASGRTFTFNAMGWYRPAPGKERELVARIDWRGITYADSVKGRFTISRDNAKNTVYLQMNSLKPEDTAVYDCAAVWLHISYYGKYDYWGQGTQVTVSS | low polyreactivity |
| QVQLVESGGGLVQAGGSLLLSCAASGFSFEKNAMGWYIQEPGKERELVAAISRGGSTYADSVKGRFTISRDNAKNTVYLQMYSRKPVDTAVYYCAADTVYIFSSAINGEFGYWGQGTQVTVSS | low polyreactivity |
| QVQLLESGGGLVQAGGSLRLSCAATGRIFAPYTMGWYRQAPGTEMEMFAVISKRGGNTYYADSVKGRFTISRDNAKNTVYLQMNSLKPEATAVYFCNADWQFRVYLGGPGTHGYDYWGQGTQVTVSS | low polyreactivity |
| QVQLVESGGGLVQAGGSLRLSCAASGFTFNKYAMGWYRQEPGKERELVAAISVSGSRTYYADSVKGRFTISRDNAKNTFYLQMNSLKPEDTAVYYCAATHYSQVSDDYWGQGTQVTVSS | high polyreactivity |
| QVQLVESGGGLVQAGGSLRLSCAASGSTFYEYAMGWYRPAPGKERELVAAISSGGSTYYADSVKGRFTISRDNAKNTVYLQMNSLKPEDTAVYYCNSDCQTYGGEYDYWGQGTQVTVSS | low polyreactivity |
| QVQLVESSGGLVQAGGSLRLSCAASGFIFPLYTMGWYRQAPAKERELVAAISVTGGSTYYADSVKGRFTISRDNAKNTVYLQMNSLKPEDTAVYYCNAYLFFLNRVCSFDYWGQGTQVTVSS | high polyreactivity |
| QVQLVESGGVLVQAGGSIRLSCAASGSTSYIYVMGWYRQAPGKERELVATISKNGGDTYADSVKGRFTISRDNAKNTVYLQMNSLKPEDTAVYYCNARAFRYNRRISSRYNYWGQGTQVTVSS | high polyreactivity |
| QVQLVESGGGLVQAGGSLRLICAASGSNFYVYAMGWYRQAPGKERELVAAISDSGSRTYYADSVKGRFTISRDNAKNTVYLKKNSLKPEDTAVYYCAALTRRTGYTYKEYYWGQGTQVTVSS | high polyreactivity |
| QVQLVESGGGLVQAGGSLRLSCAASGFIFGVYDMGWSRQAPGKERELVAAIDSVGSTYYADSVKGRFTISRDNAYNTVYLQMNSLKPEDTAVYYCAKDGSYQAYGYWGQGTQVTVSS | low polyreactivity |
| QVQLVESGGGLVQAGGSLRLSCAASGSIFHDYAMGWYRQAPGKEREMVAAIRWSGGSTYYADSVKGRFTISRDNAKNTVYLQMNSLKREETAVYYCNAVTFGRDNVQLVKFGYWGQGTQVTVSS | low polyreactivity |
| QVQLVESGGGLVQAGGSLRLSCAASGYTFGYNVMGWYRQAPGKERELVAVISSGGTTYYADSVKGRFTISRDNAKNTVYLQMNSLKPEDTAVYYCNKRSAYKFSTHYGYYYWGQGTQVNVSS | high polyreactivity |
| QVQLVETGGRLVQAGGSLRLSCAASGFTFWTYAMGWYRQAPGKERELVAAISTSGGSTYYADSVKGRFTISRDNAKNTVYLQMNSLKPEDTAVYYCSAYAIGEHFRARYGYWGQGTQVTVSS | high polyreactivity |
| QVQLVESGGGLVQAGGSLRLSCAASGVTFTYYAMGWYRQAPGKERELVAAISKSGGRTYYADSVKGRFTISRDNAKNTVYLQMNSLKPEDTAVYYCAARITREGYYWGQGTQVTVSS | high polyreactivity |
| QVQLVASGGGLVHAGGSLRLSCAASGGTFWDYAMGWSRQAPGKERELVAVISDSGGTYYADSVKGRFTISRDNAKNTVYLQMNSLKPEDTAVYYCAAGSLTLSTSTVWFAYDYWGQGTQVTVSS | high polyreactivity |
| QVQLVESGGGLVQAGGSLRLSCAASGSTLRAYAMGWYRQAPGKERELVATITRGARTNYADSVKGRFTISRDNAKNTVYLQMNSLKPEDTAVYYCAARSYGSQLSRQVYYWGQGTQVTVSS | high polyreactivity |
| QVQLVESGGGLVQAGGSLRLSCAASGSIFLLNAMGWYRQAPGKERELVAVISSGTGSTYYADSVKGRFTISRDTAKNTVYLQMNSLKPEDTAVYYCAAERDAVLFFVGPYYITLDYDYWGQGTQVTVSS | low polyreactivity |
| QVQLVESGGGLVQAGGSLRLSCAASGSTFHWYDMGWYRPAPGKERELVAGINSSGDGTYYADSVKGRFTISRDNAKNTVYLQMNSLKPEDTAVYYCAAEYYTYWGYEDDYWGQGTQVTVSS | low polyreactivity |
| QVQLVESGGGLVQAGGSLRLSCAASGRTFGNNAMGRYRLAPGKVWELVAAINWSGASTYYADSVKGRFTISRDNAKNTVYLQMNSLKPEDTAVYYCAADYSYIYGFDYWGQGTQVTVSS | low polyreactivity |
| QVQLVESGGGLVQAGGSLRLSCAASGSTFHSYVMGWYRQAPGKERELVAAITSRGGSTNYADSVKGRFTISRDNAKNTVYLQMNSLKPEDTAVYYCAADGYWGWSYFRYDYWGQGTQVTVSS | low polyreactivity |
